# Assay results: PMC10636607 (Cell Reports, 2023)
# B1: GAR12 Fab VL D50K (Fab, V domains shown)
# VH: EVQLVQSGGGLVQPGGSLRLSCAASGFTFSSYAMSWVRQAPGKGLEWVLSISGSGGSTYYADSVKGRFTISIDNSKKTVYLQMNSLRAEDTAVYYCAKSGEQQLVQAEYFHHWGQGTLVTVSS
# VL: DIQMTQSPSTLSASVGDRVTITCRASQSIGRWLAWYQQKPGKAPKLLIYKASSLESGVPSRFSGSGFGTEFTLTISSLQPDDFATYYCQQCDSLLTFGGGTKLEIK
# B2: COV44-62 Fab VH R50W (Fab, V domains shown)
# VH: QMQLMQSGAEVKKPGASVTVSCKASGDTFSDYRIHWVRQAPGQGLEWMGWMNPKSGDTNFAQKFQGRVTMTRDMSINTAYMTLSGLTFDDTALYYCASLLIVGGFDPLDDFEVWGQGTMVTISS
# VL: QSALTQPPSASGSPGQSVTISCSGTSSDVGGYNFVSWYQHHPGKAPKILIYEVTKRPSGVPDRFSGSKSGNTASLTVSGLQAEDEADYYCSSYGGTNNLLFGGGTKLTVL
# Experiments:
# [1] = biological target: His6-tagged SARS-CoV-2 receptor-binding domain (SARS-CoV-2, UniProt P0DTC2); assay: BLI; details: both partners purified
# [2] = biological target: biotinylated SARS-CoV-2 fusion peptide (SARS-CoV-2, biotin on the N-terminus); assay: BLI; details: both partners purified
Binder,fold change in KD against the wild-type Fab [1],binding result [2]
B1,44 fold,
B2,,"no binding (tested: 33 nM, 100 nM, and 300 nM)"
